Consider two molecules from patent US20240043540A1 (Innovent, published 2024).

As a reminder, the Kd is the concentration at which binding is half-saturated.

What all share (assay): bio-layer interferometry (ForteBio), antibody loaded on sensor, antigen in solution
On the technique in general: In BLI a coated tip is dipped into the sample, and binding shifts an interference pattern.

Assay [1] deals with T1, recombinant human 4Ig-B7H3 protein (human, UniProt Q5ZPR3 29-461).
T1 construct: also called human B7H3 protein; SINO BIOLOGICAL Catalog No. 11188-H08H
T1 sequence: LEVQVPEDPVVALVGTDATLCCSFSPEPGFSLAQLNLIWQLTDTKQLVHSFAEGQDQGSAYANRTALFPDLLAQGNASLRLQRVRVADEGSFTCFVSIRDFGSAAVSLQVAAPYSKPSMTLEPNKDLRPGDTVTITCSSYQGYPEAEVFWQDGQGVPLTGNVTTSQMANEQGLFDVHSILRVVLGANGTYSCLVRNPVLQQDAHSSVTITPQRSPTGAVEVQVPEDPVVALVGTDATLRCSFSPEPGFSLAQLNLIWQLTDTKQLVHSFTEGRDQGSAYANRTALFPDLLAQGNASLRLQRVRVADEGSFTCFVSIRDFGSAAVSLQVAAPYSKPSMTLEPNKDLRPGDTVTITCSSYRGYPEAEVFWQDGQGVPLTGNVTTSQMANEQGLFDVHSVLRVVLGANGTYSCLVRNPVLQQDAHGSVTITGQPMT
As to the method:
(§1) The equilibrium dissociation constant (KD) for binding of the antibodies of the present invention to human B7H3 was determined by bio-layer interferometry (ForteBio). The ForteBio affinity assay was conducted according to the method (Estep, P et al., High throughput solution Based measurement of antibody-antigen affinity and epitope binding. mAbs, 2013.5(2): 270-8) known in the art.
(§2) Briefly, AMQ (Pall, 1506091) (for sample detection) or AHQ (Pall, 1502051) (for positive control detection) sensors were equilibrated offline in an assay buffer for 30 min, and were equilibrated online for 60 s to establish a baseline. The purified antibodies obtained as described above were loaded online onto an AHQ sensor (ForteBio) for the ForteBio affinity assay. The sensor with the loaded antibodies was then exposed to the antigens (including human 4Ig-B7H3, human 2Ig-B7H3 (ACRO, Catalog No. B73-H52E2) and cynomolgus monkey B7H3 (SINO BIOLOGICAL, Catalog No. 90806-C02H-50)) before transferring the sensor to the assay buffer for dissociation rate measurement. The KD values were analyzed using ForteBio analysis software.

Assay [2] deals with T2, recombinant human 2Ig-B7H3 protein (human, UniProt Q5ZPR3 29-466).
T2 construct: Bought soluble recombinant protein; also called ACRO Catalog No. B73-H52E2
T2 sequence: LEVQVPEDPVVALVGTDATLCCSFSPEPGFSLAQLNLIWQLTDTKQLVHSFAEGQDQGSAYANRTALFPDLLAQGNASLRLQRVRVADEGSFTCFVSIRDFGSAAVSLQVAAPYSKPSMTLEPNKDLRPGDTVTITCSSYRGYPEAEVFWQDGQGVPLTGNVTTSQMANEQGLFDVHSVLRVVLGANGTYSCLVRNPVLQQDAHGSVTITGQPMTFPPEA
As to the method: as §1, §2

Assay [3] addresses T3, recombinant cynomolgus monkey B7H3 protein (cynomolgus monkey, UniProt Q7TPB4 26-248 (rat entry)).
T3 construct: also called SINO BIOLOGICAL Catalog No. 90806-C02H-50
T3 chain: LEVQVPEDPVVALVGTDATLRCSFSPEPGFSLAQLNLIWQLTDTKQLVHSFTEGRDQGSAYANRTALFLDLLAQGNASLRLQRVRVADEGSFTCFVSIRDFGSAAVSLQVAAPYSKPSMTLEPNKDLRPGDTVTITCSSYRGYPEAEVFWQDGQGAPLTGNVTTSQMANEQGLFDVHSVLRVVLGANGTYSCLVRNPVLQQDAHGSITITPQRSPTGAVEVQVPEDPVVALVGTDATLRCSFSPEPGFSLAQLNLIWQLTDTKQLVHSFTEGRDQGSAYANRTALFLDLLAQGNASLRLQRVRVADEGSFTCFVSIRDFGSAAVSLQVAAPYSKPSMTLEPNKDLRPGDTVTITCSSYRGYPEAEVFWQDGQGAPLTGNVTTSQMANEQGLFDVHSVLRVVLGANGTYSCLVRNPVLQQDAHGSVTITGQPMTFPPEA
As to the method: as §1, §2

B1: Ch20G5 chimeric antibody (antibody, human IgG1, kappa, V domains shown)
VH: EVQLQQSVPELVKPGASVKISCKTSGYTFTEYIMHWVKQSHGKNLEWIGGINPNNGGTTYNQKFKDKATLTVDKSSSTAYMELHNLTSEDSAVYYCTRRTPPWHFAVWGAGTSLTVSS
VL: DIVLTQSPTIMSASPGEKVTMTCSASSSVSYIHWYQQKSGTSPKRWIFDTSRLASGVPARFSGSGSGTSYSLTISSMEAEDAATYYCQQWSSAPLTFGTGTTLELKR
Take B1: the results for the equilibrium dissociation constant (Kd) in assay [1], in assay [2] and in assay [3] were 0.236 nM, 3.18 nM and 0.713 nM, respectively.

B2: Ch19A2 chimeric antibody (antibody, human IgG1, kappa, V domains shown)
VH: EVQLQQSGAELVRPGASVKLSCKTSGYIFTSYWIHWIKQRSGQGLEWIARIYPGTDSTFYNEKFKGRATLTADKSSSTVYLQLNSLKSEDSAVYFCHFITASDWYFDVWGAGTTVTVSS
VL: DIVLTQSPAIMSASPGEKVTLTCSVSSSVNSNYLYWYQQKPGSSPKLWIYGTSNLASGVPARFSGSGSGPSYSLTISSMEAEDAASYFCYQWSSYPFTFGSGTKLEIKR
Take B2: the Kd in assay [1] is 0.362 nM; in assay [2], 5.74 nM; in assay [3], 0.59 nM.
